{"source": "paper PMC6104694", "origin": "cited, not measured here", "key": {"[1]": {"biological_target": "presenilin-1 C-terminal fragment 23 amino acid CTF (Homo sapiens) (UniProt P49768)"}, "[2]": {"biological_target": "presenilin-1 C-terminal fragment 23 amino acid CTF (Homo sapiens) (UniProt P49768)", "remark": "listed apart in the source"}}, "note": "Like-named read-outs stand apart in the source and are kept apart here.", "data": [{"substance": "KChIP3 (calsenilin) (from UniProt Q9Y2W7)", "values": [{"measurement": "Kd", "setting": "[1]", "value": 183, "unit": "µM"}, {"measurement": "Kd", "setting": "[2]", "value": 0.6, "unit": "µM"}]}]}
